Here are results for seven molecules from US7390645B2, “Lactose repressor proteins with increased operator DNA binding affinity” (William Marsh Rice University, priority 1997, dated 2008).

“Also recorded” adds a separate entry of the source. Like-named read-outs stand apart in the source and are kept apart here. A value given as a limit tells only on which side of the number the result lay.

Assay [1] deals with O^1 operator sequences (lac operator DNA). The assay can be described thus: lac operator DNA binding of lac repressor proteins characterized in vitro. Details: species or system E. coli. The settings on record: for affinity for lac operator DNA (in words): relative to wild-type lac repressor unless stated. The source says:
The term “affinity”, as used in conjunction with the lac operator or an inducer ligand, is defined as 1/Kd, where Kd is the concentration of DNA or ligand required to occupy 50% of the available binding sites.
(§1) To test an altered lac repressor protein, the coding sequence for the altered lac repressor protein can be cloned into an expression vector. The expression vector can then be placed into bacterial or eukaryotic cells containing a reporter gene under lac operator control to test for an active repressor protein. For example, a reporter containing E. coli β-galactosidase (encoded by lacZ) has been constructed by excising the lacZ gene under control of the lac operator from the plasmid pCR2.1 (Invitrogen) and inserting it into plasmid pACYC184 (New England Biolabs). This new composite reporter plasmid is named pZCam and can be co-transformed or electroporated into bacteria with the plasmids containing the coding sequences of altered lac repressor proteins. Host cells for these plasmids should have neither lactose repressor nor β-galactosidase proteins (i.e., the cells are lacI^− lacZ^−). Next, these bacteria are plated in the presence of either methyl umbelliferyl-β-D-galactoside (MUG) or 5-bromo-4-chloro-3-indolyl-β,D-galactoside (X-gal) as indicators to determine whether an active repressor protein is present (white colonies). In the presence of an inducer sugar, colonies containing inducer-responsive repressor protein will be fluorescent (MUG) or blue (X-gal). Alternatively, the coding sequence can be cloned into any expression vector known in the art and transformed into E. coli that are lacI^−, preferably ΔlacI, and lacpOz^+. The lacpOz region can be on a different, but compatible, plasmid or in the bacterial genome. Colonies containing active repressor protein will be white in the absence of an inducer and fluorescent (MUG) or blue (X-gal) in the presence of an inducer. Specific amino acid changes that result in increased operator binding affinity or enhanced ligand responsivity can be determined. LacI derivatives with appropriate properties are then isolated and characterized in vitro for their (a) O^1 operator DNA binding properties in the absence and presence of the appropriate inducer ligand and (b) inducer ligand binding properties in the absence and presence of operator DNA. Purified proteins can be obtained by standard protein purification methods known to those of skill in the art.

Assay [2] is described as follows: responsivity of lac repressor proteins to inducer ligand. The settings on record: relative to wild-type lac repressor. It is filed as biochemical, E. coli.
Description: as §1
Mutants can be screened by phenotypic analysis as described above. In the preferred forms, the plasmid containing the gene for altered lac repressor protein is either co-transformed with the reporter plasmid pZCam or is transformed into E. coli that are ΔlacI and lacpOz^+. Introduction of wild-type lac repressor protein into bacteria containing pZCam or into the ΔlacI/lacpOz^+ bacteria results in white colonies in the presence of MUG or X-gal. In contrast, in the presence of IPTG or the alternative ligand, the colonies are fluorescent (MUG) or blue (X-gal). […]

Assay [3] concerns O^1 operator sequences (lac operator DNA). To be noted: relative to wild-type lac repressor; cited from earlier work.
For assay [4] the following is noted: reduced form; cited from earlier work.
[5] abbreviates: read-out: Kd for O^1 operator sequences.

B1: Gln60Gly: altered lac repressor protein with glycine substituted for glutamine at amino acid number 60; SEQ ID NO:2 (protein, listed as Escherichia coli)
chain: MKPVTLYDVAEYAGVSYQTVSRVVNQASHVSAKTREKVEAAMAELNYIPNRVAQQLAGKGSLLIGVATSSLALHAPSQIVAAIKSRADQLGASVVVSMVERSGVEACKAAVHNLLAQRVSGLIINYPLDDQDAIAVEAACTNVPALFLDVSDQTPINSIIFSHEDGTRLGVEHLVALGHQQIALLAGPLSSVSARLRLAGWHKYLTRNQIQPIAEREGDWSAMSGFQQTMQMLNEGIVPTAMLVANDQMALGAMRAITESGLRVGADISVVGYDDTEDSSCYIPPLTTIKQDFRLLGQTSVDRLLQLSQGQAVKGNQLLPVSLVKRKTTLAPNTQTASPRALADSLMQLARQVSRLESGQ
For the molecule B1, the Kd (commonly the concentration at which binding is half-saturated) is above 100 nM in assay [1] (presence of 1 mM IPTG, read-out: Kd for O^1 operator sequences in the presence of 1 mM IPTG) and 0.004 nM in assay [1] (setting [5]). In addition, in assay [1], the “affinity for lac operator DNA (in words)” value is listed as “increased affinity for operator sequences”. In addition, the “responsivity to inducer (in words)” value in assay [2] is on record as “close to normal responsivity to inducer”.

B2: Gln60Gly/Leu148Phe (protein)
chain: MKPVTLYDVAEYAGVSYQTVSRVVNQASHVSAKTREKVEAAMAELNYIPNRVAQQLAGKGSLLIGVATSSLALHAPSQIVAAIKSRADQLGASVVVSMVERSGVEACKAAVHNLLAQRVSGLIINYPLDDQDAIAVEAACTNVPALFFDVSDQTPINSIIFSHEDGTRLGVEHLVALGHQQIALLAGPLSSVSARLRLAGWHKYLTRNQIQPIAEREGDWSAMSGFQQTMQMLNEGIVPTAMLVANDQMALGAMRAITESGLRVGADISVVGYDDTEDSSCYIPPLTTIKQDFRLLGQTSVDRLLQLSQGQAVKGNQLLPVSLVKRKTTLAPNTQTASPRALADSLMQLARQVSRLESGQ
Regarding B2, in assay [1], the “affinity for lac operator DNA (in words)” value was “increased affinity for operator sequence compared to Leu148Phe (affinity comparable to wild-type lac repressor)”. Moreover, the “responsivity to inducer (in words)” value in assay [2] is given as “enhanced inducer responsivity comparable to Leu148Phe”.

B3: Pro320Ala: lac repressor protein Pro320Ala identified by random mutagenesis and phenotypic screening (protein)
chain: MKPVTLYDVAEYAGVSYQTVSRVVNQASHVSAKTREKVEAAMAELNYIPNRVAQQLAGKQSLLIGVATSSLALHAPSQIVAAIKSRADQLGASVVVSMVERSGVEACKAAVHNLLAQRVSGLIINYPLDDQDAIAVEAACTNVPALFLDVSDQTPINSIIFSHEDGTRLGVEHLVALGHQQIALLAGPLSSVSARLRLAGWHKYLTRNQIQPIAEREGDWSAMSGFQQTMQMLNEGIVPTAMLVANDQMALGAMRAITESGLRVGADISVVGYDDTEDSSCYIPPLTTIKQDFRLLGQTSVDRLLQLSQGQAVKGNQLLAVSLVKRKTTLAPNTQTASPRALADSLMQLARQVSRLESGQ
With B3, in assay [1] (higher affinity than wild-type), the “operator DNA affinity relative to wild-type lac repressor” value is recorded as 10 fold. The “affinity for lac operator DNA (in words)” value in assay [1] is given as “increased DNA affinity”. For the same molecule, in assay [2], the “responsivity to inducer (in words)” value was “normal inducer responsivity; also recorded: wild-type inducer responsivity”.

B4: Val52Cys: mutation of lac repressor amino acid 52 from Val to Cys (protein)
chain: MKPVTLYDVAEYAGVSYQTVSRVVNQASHVSAKTREKVEAAMAELNYIPNRCAQQLAGKQSLLIGVATSSLALHAPSQIVAAIKSRADQLGASVVVSMVERSGVEACKAAVHNLLAQRVSGLIINYPLDDQDAIAVEAACTNVPALFLDVSDQTPINSIIFSHEDGTRLGVEHLVALGHQQIALLAGPLSSVSARLRLAGWHKYLTRNQIQPIAEREGDWSAMSGFQQTMQMLNEGIVPTAMLVANDQMALGAMRAITESGLRVGADISVVGYDDTEDSSCYIPPLTTIKQDFRLLGQTSVDRLLQLSQGQAVKGNQLLPVSLVKRKTTLAPNTQTASPRALADSLMQLARQVSRLESGQ
With B4, the “affinity for lac operator DNA (in words), from cited work” value in assay [3] is “increased affinity for the lac operator DNA”. For the same molecule, the “response to inducer (in words), from cited work” value in assay [4] is “normal response to inducer in reduced form”.

B5: Leu148Phe (protein)
chain: MKPVTLYDVAEYAGVSYQTVSRVVNQASHVSAKTREKVEAAMAELNYIPNRVAQQLAGKQSLLIGVATSSLALHAPSQIVAAIKSRADQLGASVVVSMVERSGVEACKAAVHNLLAQRVSGLIINYPLDDQDAIAVEAACTNVPALFFDVSDQTPINSIIFSHEDGTRLGVEHLVALGHQQIALLAGPLSSVSARLRLAGWHKYLTRNQIQPIAEREGDWSAMSGFQQTMQMLNEGIVPTAMLVANDQMALGAMRAITESGLRVGADISVVGYDDTEDSSCYIPPLTTIKQDFRLLGQTSVDRLLQLSQGQAVKGNQLLPVSLVKRKTTLAPNTQTASPRALADSLMQLARQVSRLESGQ
Consider B5, for which the “affinity for lac operator DNA (in words)” value in assay [1] is recorded as “slightly diminished DNA affinity; also recorded: diminished affinity for operator sequences”. For the same molecule, in assay [2], the “responsivity to inducer (in words)” value is recorded as “enhanced responsivity to IPTG”.

B6: Gln55Glu: Gln55Glu mutant of the lac repressor (protein)
chain: MKPVTLYDVAEYAGVSYQTVSRVVNQASHVSAKTREKVEAAMAELNYIPNRVAQELAGKQSLLIGVATSSLALHAPSQIVAAIKSRADQLGASVVVSMVERSGVEACKAAVHNLLAQRVSGLIINYPLDDQDAIAVEAACTNVPALFLDVSDQTPINSIIFSHEDGTRLGVEHLVALGHQQIALLAGPLSSVSARLRLAGWHKYLTRNQIQPIAEREGDWSAMSGFQQTMQMLNEGIVPTAMLVANDQMALGAMRAITESGLRVGADISVVGYDDTEDSSCYIPPLTTIKQDFRLLGQTSVDRLLQLSQGQAVKGNQLLPVSLVKRKTTLAPNTQTASPRALADSLMQLARQVSRLESGQ
Regarding B6, the “affinity for lac operator DNA (in words), from cited work” value in assay [3] is on record as “decreased affinity for lac operator DNA”.

B7: wild-type LacI: naturally occurring E. coli lac repressor protein (LacI); SEQ ID NO:1 (protein, listed as Escherichia coli)
chain: MKPVTLYDVAEYAGVSYQTVSRVVNQASHVSAKTREKVEAAMAELNYIPNRVAQQLAGKQSLLIGVATSSLALHAPSQIVAAIKSRADQLGASVVVSMVERSGVEACKAAVHNLLAQRVSGLIINYPLDDQDAIAVEAACTNVPALFLDVSDQTPINSIIFSHEDGTRLGVEHLVALGHQQIALLAGPLSSVSARLRLAGWHKYLTRNQIQPIAEREGDWSAMSGFQQTMQMLNEGIVPTAMLVANDQMALGAMRAITESGLRVGADISVVGYDDTEDSSCYIPPLTTIKQDFRLLGQTSVDRLLQLSQGQAVKGNQLLPVSLVKRKTTLAPNTQTASPRALADSLMQLARQVSRLESGQ
Turning to B7, in assay [1] (setting [5]), the Kd came out at 0.012 nM.
